Experimental data taken from patent US20260275304A1, “METHODS AND COMPOSITIONS FOR GLYPHOSATE TOLERANCE IN PLANTS” (Monsanto Technology LLC, priority 2023, published 2026).

B1: TIPS: Zea mays EPSPS double mutant T102I and P106S, SEQ ID NO:9; positive control (protein)
chain: AGAEEIVLQPIKEISGTVKLPGSKSLSNRILLLAALSEGTTVVDNLLNSEDVHYMLGALRTLGLSVEADKAAKRAVVVGCGGKFPVEDSKEEVQLFLGNAGIAMRSLTAAVTAAGGNATYVLDGVPRMRERPIGDLVVGLKQLGADVDCFLGTDCPPVRVNGIGGLPGGKVKLSGSISSQYLSALLMAAPLALGDVEIEIIDKLISIPYVEMTLRLMERFGVKAEHSDSWDRFYIKGGQKYKSPKNAYVEGDASSASYFLAGAAITGGTVTVEGCGTTSLQGDVKFAEVLEMMGAKVTWTETSVTVTGPPREPFGRKHLKAIDVNMNKMPDVAMTLAVVALFADGPTAIRDVASWRVKETERMVAIRTELTKLGASVEEGPDYCIITPPEKLNVTAIDTYDDHRMAMAFSLAACAEVPVAIRDPGCTRKTFPDYFDVLSTFVKN
modifications: Zea mays
notes: positive control
B2: TIPS-P126S-K296R: maize EPSPS variant, probably SEQ ID NO:11 (protein)
chain: AGAEEIVLQPIKEISGTVKLPGSKSLSNRILLLAALSEGTTVVDNLLNSEDVHYMLGALRTLGLSVEADKAAKRAVVVGCGGKFPVEDSKEEVQLFLGNAGIAMRSLTAAVTAAGGNATYVLDGVSRMRERPIGDLVVGLKQLGADVDCFLGTDCPPVRVNGIGGLPGGKVKLSGSISSQYLSALLMAAPLALGDVEIEIIDKLISIPYVEMTLRLMERFGVKAEHSDSWDRFYIKGGQKYKSPKNAYVEGDASSASYFLAGAAITGGTVTVEGCGTTSLQGDVKFAEVLEMMGARVTWTETSVTVTGPPREPFGRKHLKAIDVNMNKMPDVAMTLAVVALFADGPTAIRDVASWRVKETERMVAIRTELTKLGASVEEGPDYCIITPPEKLNVTAIDTYDDHRMAMAFSLAACAEVPVAIRDPGCTRKTFPDYFDVLSTFVKN
modifications: Zea mays

Tests used:
[1] = system: S. cerevisiae strain sKR-024; assay: Growth of synthetic yeast strain sKR-024 expressing EPSPS variants with or without glyphosate; type: cell-based, Saccharomyces cerevisiae; settings: for growth in yeast minimal media without glyphosate: 0 mM glyphosate
Description: EPSPS variants were re-cloned into a clean p416-Core1p backbone and transformed into strain sKR-024 as described above. Colonies were then picked in triplicate into YSC-Ura-Leu and outgrown for 2 days at 30° C. Cultures were then diluted back to OD 0.001 in yeast minimal media (YMM) containing varying amounts of glyphosate as indicated. Growth rate measurements were then obtained using an Infinite M200 PRO microplate reader (Tecan, Männedorf, Switzerland) with incubation at 30° C. for 72-120 hours depending on growth rate of selected variants.
To determine if this system could further corroborate observations from previous literature, the well-studied EPSPS mutants T102I and P106S, and the combined double mutant TIPS (T102I-P106S) were generated and complemented into this yeast system. These mutations were reported to result in varying degrees of glyphosate resistance.
Having established low copy number and weak promoter expression of EPSPS variants, it was sought to recharacterize phenotypes under field conditions that are used in planta. […] It has been reported previously that under standard glyphosate foliar application, 0.3 mM or more of glyphosate (gly) can accumulate in a plant's root nodules and meristems. […] These trends support reported literature of mutants P106S and TIPS grown in various plant hosts. As a result, the present synthetic yeast model system closely resembles in planta observations and thus can be used to select for dual-trait EPSPS variants aimed at both enzymatic efficiency and glyphosate resistance.
Select mutants isolated from the final directed evolution campaign with the improved selection strategy were further evaluated in assorted glyphosate concentrations to determine growth characteristics. Mutants isolated from an EPSPS background were evaluated in media containing 0 mM and 0.25 mM glyphosate with the latter being the concentration at which wild-type EPSPS cannot grow after 100 hours. […] The non-glyphosate mono selection highlighted in blue represents mutations resulting from 5 subcultures in 0 mM glyphosate. The low glyphosate dual selection highlighted in light green represents mutants resulting from an additional subculture into 0.5 mM glyphosate. Lastly, the high glyphosate dual selection highlighted in dark green represent mutations isolated after subcultures in increasing levels of glyphosate, up to 10 mM.

[2] = system: transgenic maize plants; assay: Maize transformation with glyphosate selection, plantlet recovery and quality checks; type: in vivo, Zea mays; settings: for Number of young plants passing quality control checks: in vivo; for Number of plantlets generated: under glyphosate selection, same amount of starting material
Source text: Maize was used as a model system to test the functionality of the EPSPS variants because of detailed previous characterization of glyphosate tolerance in maize and a suitable transgenic plant generation protocol that relies on glyphosate. Plant transformation vectors were generated in which the native maize EPSPS sequence was used, which includes the native gene promoter elements, the native introns and exons and the native 3′ untranslated region and introduced mutations that corresponded to each of the selected amino acid changes. The native sequence was used to mimic as closely as possible how the selected EPSPS variants would perform if the variants were introduced directly in the genome without the help of strong expression elements. The following variants were selected for testing in a transgenic maize system: TIPS (as a control); TIPS-P126S-M217L-K296R; TIPS-P126S-K296R; T102I-P126S-K296R (where only the T102I change is present); P106S-P126S-K296R (where only the P106S change is present); and P126S-K296R (where neither of the TIPS changes are present).
Transgenic maize plants that expressed each of the six EPSPS variants were generated to determine if the variants conferred glyphosate tolerance to plants. The full DNA sequence encoding TIPS EPSPS (SEQ ID NO:1) was cloned from maize genomic DNA. In this sequence, the promoter and 5′ UTR are nucleotides 1:2556; the chloroplast transit peptide sequence is nucleotides 2557:2742; EXON 1 is nucleotides 2743:2856; INTRON 1 is nucleotides 2857:3384; EXON 2 is nucleotides 3385:3626; INTRON 2 is nucleotides 3627:3725; EXON 3 is nucleotides 3726:3879; INTRON 3 is nucleotides 3880:4152; EXON 4 is nucleotides 4153:4367; INTRON 4 is nucleotides 4368:4877; EXON 5 is nucleotides 4878:4995; INTRON 5 is nucleotides 4996:5155; EXON 6 is nucleotides 5156:5366; INTRON 6 is nucleotides 5367:5446; EXON 7 is nucleotides 5447:5508; INTRON 7 is nucleotides 5509:5617; EXON 8 is nucleotides 5618:5836; and the 3′ UTR is nucleotides 5837:6368. Mutations were then introduced into the EPSPS coding sequence in order to produce each of the six EPSPS variants to be tested. These mutated full genomic DNA sequences were then each cloned as a single expression cassette into plant transformation vectors.
Agrobacterium tumefaciens-mediated plant transformation was performed using methods known in the art. Glyphosate selection was used to select for transgenic events containing the transgene of interest and further screened for only those EPSPS variants that provided effective glyphosate tolerance in a plant cell. While all six EPSPS variants began the transformation process with the same amount of starting maize cellular material, there were differences in the number of small plantlets recovered that were capable of being transplanted to greenhouse soil media (Table 4). Transgenic events were further analyzed to determine transgene copy number. Healthy events with single copy of the transgene of interest were grown in the greenhouse soil media. Only three of the six EPSPS variants had more than one plant surviving. Up to twenty-five of these developing R0 plants were transplanted to larger pots and allowed to grow to maturity for seed collection in the greenhouse.

[3] = system: transgenic maize plants; assay: Greenhouse glyphosate spray test on hybrid (hemizygous) transgenic maize; type: in vivo, Zea mays; settings: for Average Injury At 1120 g/ha: Roundup PowerMax3, 1× field rate; for Average Injury At 1120 g/ha / Average Injury At 2240 g/ha: 18 days after treatment, scale of 0 to 100; for Average Injury At 2240 g/ha: Roundup PowerMax3, 2× field rate
Description: To further evaluate the performance of EPSPS variants for glyphosate tolerance, transgenic maize plants comprising a single copy of the transgene encoding the EPSPS variants TIPS-P126S-M217L-K296R or TIPS-P126S-K296R were grown to maturity. Homozygous transgenic plants were crossed with an inbred line to produce hybrid seeds.
Plants from the hybrid seeds (hemizygous for the transgenes) of two independent transformation events for each of the two variants were grown in the greenhouse for glyphosate spray test. Roundup® PowerMax3, a commercial formulation of glyphosate, was applied at the third leaf stage at two rates: 1120 gram/hectare (1× the field rate) and 2240 gram/hectare (2× the field rate). The controls included an untreated untransformed control without glyphosate treatment, an untransformed control sprayed with glyphosate, and a TIPS positive control both sprayed with glyphosate. Glyphosate herbicide injury (plant stunting, chlorosis, necrosis, malformation, and death) was assessed by visual inspection of the plants 18 days after herbicide treatment. Herbicide injury rate was presented on a scale of 0 to 100 with “0” being no visible crop injury and “100” being complete crop injury or death.

Molecule	growth in yeast minimal media without glyphosate [1]	growth in glyphosate ([1]; 0.5 mM glyphosate, Core1p promoter)	order of glyphosate tolerance ([1]; 5 mM glyphosate, FIG. 1 Panel C)	Number of young plants passing quality control checks [2]	Number of plantlets generated [2]	tolerance to glyphosate ([3]; 2× field rate)	Average Injury At 1120 g/ha [3]	Average Injury At 2240 g/ha [3]	growth across glyphosate levels ([1]; 0.05 mM to 5 mM glyphosate)	tolerance to glyphosate ([3]; equivalent 1× field dose)
B1	grew at a significant deficit	grew well in the presence of glyphosate	P106S<T102I<TIPS	35	192	minor injuries	0	1.25	–	–
B2	performed very similarly to wild-type EPSPS	–	–	38	190	minor injuries	0	17	performed extremely well in every condition of glyphosate	excellent tolerance
